Measured values: patent US20260049134A1 (UNIVERSITY OF FLORIDA RESEARCH FOUNDATION, published 2026)
Where a chain is given by its changes, count along the chain named. Names may count otherwise.

Key:
Assay in all cases: ELISA on coated protein
[1] = target: T1, DCC
T1 construct: also called DCC-His (R&D Systems)
T1 chain: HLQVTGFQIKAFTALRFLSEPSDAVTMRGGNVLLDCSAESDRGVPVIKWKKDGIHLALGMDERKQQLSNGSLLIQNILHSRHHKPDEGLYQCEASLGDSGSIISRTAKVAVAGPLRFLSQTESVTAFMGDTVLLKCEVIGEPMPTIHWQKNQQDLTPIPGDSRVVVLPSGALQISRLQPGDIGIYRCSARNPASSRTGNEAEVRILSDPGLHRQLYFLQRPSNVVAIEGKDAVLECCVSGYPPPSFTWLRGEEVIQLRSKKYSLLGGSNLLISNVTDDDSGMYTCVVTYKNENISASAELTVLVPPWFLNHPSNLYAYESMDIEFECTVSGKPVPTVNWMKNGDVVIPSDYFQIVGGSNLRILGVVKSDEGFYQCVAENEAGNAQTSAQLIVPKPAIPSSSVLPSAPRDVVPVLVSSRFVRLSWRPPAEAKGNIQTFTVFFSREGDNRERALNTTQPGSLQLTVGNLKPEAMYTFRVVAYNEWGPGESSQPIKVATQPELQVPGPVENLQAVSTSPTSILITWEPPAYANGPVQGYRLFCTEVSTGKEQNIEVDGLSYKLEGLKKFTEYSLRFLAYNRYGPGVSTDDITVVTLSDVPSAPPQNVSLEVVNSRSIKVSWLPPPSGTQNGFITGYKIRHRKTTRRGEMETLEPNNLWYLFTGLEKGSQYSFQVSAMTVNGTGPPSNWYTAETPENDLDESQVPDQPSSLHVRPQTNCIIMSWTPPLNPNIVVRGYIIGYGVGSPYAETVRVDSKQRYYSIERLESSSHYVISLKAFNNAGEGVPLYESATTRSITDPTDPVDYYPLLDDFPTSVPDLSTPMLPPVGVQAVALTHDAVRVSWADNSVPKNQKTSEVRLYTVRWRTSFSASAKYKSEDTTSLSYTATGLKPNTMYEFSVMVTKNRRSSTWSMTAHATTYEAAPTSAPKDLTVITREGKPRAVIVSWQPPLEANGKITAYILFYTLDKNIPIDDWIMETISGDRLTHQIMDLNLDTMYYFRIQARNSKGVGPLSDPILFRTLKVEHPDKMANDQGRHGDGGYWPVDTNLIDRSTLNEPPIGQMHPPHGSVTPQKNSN
Protocol: (§1) Recombinant purified ECDs (50-150 ng) of each putative target protein were coated, incubated with 150 ng of the indicated primary antibody, and binding was detected using a peroxidase-conjugated anti-human Fab secondary antibody. Heatmap represents averages of technical triplicates. (8B) Target validation via siRNA knockdown. H929 cells were transfected with siRNA pools targeting the putative antibody targets ICAM1, CADM1, and PTPRG. Cells were then subjected to cognate IgG binding analysis via flow cytometry. (NT, non-targeting siRNA).
(§2) ELISA ELISA was conducted as described previously. Briefly, 50-150 ng of antigen was coated overnight in half-area 96-well plates at 4° C., blocked with 3% BSA at 37° C. for 1 h, and 150 ng of chimeric rabbit/human IgG1 was added, incubating for 2 h at 37° C. […] After incubating at 37° C. for 15 min-1 h (depending on intensity of controls), data were acquired using a SpectraMax M5 plate reader (Molecular Devices).

[2] = target: T2, GARS-His (Sino Biological) (human, UniProt P41250 37-739, limits assumed)
T2 construct: Bought; also called GARS1; glycyl-tRNA synthetase; not shown: His tag of the bought protein
T2 sequence: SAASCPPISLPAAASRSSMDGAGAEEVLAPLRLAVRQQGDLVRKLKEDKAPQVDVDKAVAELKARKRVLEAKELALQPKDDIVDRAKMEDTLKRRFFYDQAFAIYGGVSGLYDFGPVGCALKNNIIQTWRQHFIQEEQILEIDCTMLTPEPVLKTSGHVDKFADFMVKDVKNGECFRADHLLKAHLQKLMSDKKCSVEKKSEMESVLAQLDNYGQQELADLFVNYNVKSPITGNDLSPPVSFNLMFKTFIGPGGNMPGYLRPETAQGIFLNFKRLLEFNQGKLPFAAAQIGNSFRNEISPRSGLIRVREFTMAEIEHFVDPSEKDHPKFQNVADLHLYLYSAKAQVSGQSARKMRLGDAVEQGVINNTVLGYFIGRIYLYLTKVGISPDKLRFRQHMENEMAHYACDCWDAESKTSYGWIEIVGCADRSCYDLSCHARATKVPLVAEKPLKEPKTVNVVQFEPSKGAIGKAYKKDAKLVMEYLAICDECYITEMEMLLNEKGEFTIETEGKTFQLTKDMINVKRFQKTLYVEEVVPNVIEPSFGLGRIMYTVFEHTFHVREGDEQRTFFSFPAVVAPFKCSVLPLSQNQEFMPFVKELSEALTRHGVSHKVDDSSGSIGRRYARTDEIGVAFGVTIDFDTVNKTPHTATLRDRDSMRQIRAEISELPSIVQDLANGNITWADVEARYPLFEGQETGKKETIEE
Protocol: as §1, §2

[3] = target: T3, ICAM1-Fc (R&D Systems) (human, UniProt P05362 28-480)
T3 construct: Bought; also called ICAM-1/CD54; not shown: Fc of the bought fusion protein
Protocol: as §1, §2

[4] = target: T4, ANXA1
T4 construct: also called ANXA1-His (R&D Systems); not shown: His tag
T4 chain: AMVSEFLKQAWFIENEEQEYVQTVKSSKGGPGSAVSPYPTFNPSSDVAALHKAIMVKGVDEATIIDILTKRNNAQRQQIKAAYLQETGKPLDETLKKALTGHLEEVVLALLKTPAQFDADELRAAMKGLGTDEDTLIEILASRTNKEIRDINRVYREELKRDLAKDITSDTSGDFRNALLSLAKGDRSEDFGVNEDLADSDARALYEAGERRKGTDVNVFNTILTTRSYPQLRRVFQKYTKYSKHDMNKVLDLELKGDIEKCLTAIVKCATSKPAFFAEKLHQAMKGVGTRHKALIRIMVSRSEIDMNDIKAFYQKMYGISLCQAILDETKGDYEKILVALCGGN
Protocol: as §1, §2

T3 sequence (P05362 28-480): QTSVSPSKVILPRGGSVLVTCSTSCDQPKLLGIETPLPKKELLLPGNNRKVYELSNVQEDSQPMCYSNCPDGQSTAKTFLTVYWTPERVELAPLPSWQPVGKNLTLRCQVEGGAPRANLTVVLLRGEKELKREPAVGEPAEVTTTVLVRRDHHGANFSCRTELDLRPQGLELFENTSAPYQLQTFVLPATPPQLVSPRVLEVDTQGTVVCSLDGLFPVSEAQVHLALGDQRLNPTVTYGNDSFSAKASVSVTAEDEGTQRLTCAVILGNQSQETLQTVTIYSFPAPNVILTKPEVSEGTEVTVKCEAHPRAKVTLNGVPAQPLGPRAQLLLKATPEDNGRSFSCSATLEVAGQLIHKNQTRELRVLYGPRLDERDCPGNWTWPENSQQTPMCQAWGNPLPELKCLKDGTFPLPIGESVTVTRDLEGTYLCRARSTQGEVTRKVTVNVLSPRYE

B1: HW-17 chimeric rabbit-human IgG1 LA/LA/PG (antibody, V domains shown)
VH: QSLGESRGRLVTPDETLTLTCTVSGIDLSSNAMSWVRQAPGEGLEWIGTINTGGRAYYASWAKGRFTISRTSTTVDLKMTSLTTEDTATYFCARERYSDGRAYDIWGPGTLVTISS
VL: SFVLTQPASVQVNLGQTVSLTCTADTLSRRYASWYQQKPGQAPVLLIYTDSNRPSGIPDRFSGSSSGNTATLTISGAQAGDEADYYCATDDGSGSIYQYVFGGGTQLTVTG
notes: Fc-silenced (L234A/L235A/P329G) IgG1, lambda; Alexa Fluor 647-labeled in single-step flow cytometry; Cluster C-1
[1]
  binding result: no binding (tested: 150 ng IgG1 per well)
[2]
  binding result: no binding (tested: 150 ng IgG1 per well)
[3]
  binding result: no binding (tested: 150 ng IgG1 per well)
[4]
  binding result: no binding (tested: 150 ng IgG1 per well)

B2: HW-97 chimeric rabbit-human IgG1 LA/LA/PG (antibody, V domains shown)
VH: QKQLVESGGRLVTPGTPLTLTCTVTGIDLSSHGMSWVRQAPGKGLEWIGVIYPSGSTWYASWARGRFTISKTSTTVDLKMTSLTTEDTATHFCARGDVGGADNNIWGPGTLVTVSS
VL: B1 VL with N13D, D25E, R30S, T49R, S51T, N52S, I57V, D90S, I96S
notes: Fc-silenced (L234A/L235A/P329G) IgG1, lambda; Alexa Fluor 647-labeled in single-step flow cytometry; Prototype of cluster C-97
[1]
  binding result: no binding (tested: 150 ng IgG1 per well)
[2]
  binding result: no binding (tested: 150 ng IgG1 per well)
[3]
  binding result: no binding (tested: 150 ng IgG1 per well)
[4]
  binding result: no binding (tested: 150 ng IgG1 per well)

B3: TH9-0022 (antibody, human IgG1, kappa, L234A L235A, V domains shown)
VH: QSLEESGGRLVTPGTPLTLTCTVSGFSLSSYAMNWVRQAPGKGLEWIGIINSYGSTYYASWAKGRFTISKTSTTVDLKITSPTTEDTATYFCARVTYDSYGYGYAPYGMDLWGPGTLVTVSS
VL: LVMTQTPSSTSNAVGGTVTIKCQASQSIGNVLAWYQQKPGQPPKLLIYAASTLASGVPSRVGGSRSGTEYTLTISGVQREDAATYYCLGSDSDSDIAFGGGTELEILR
notes: also called TH9-022; negative control IgG1
[1]
  binding result: no binding (tested: 150 ng IgG1 per well)
[2]
  binding result: no binding (tested: 150 ng IgG1 per well)
[3]
  binding result: no binding (tested: 150 ng IgG1 per well)
[4]
  binding result: no binding (tested: 150 ng IgG1 per well)

B4: HW-101 chimeric rabbit-human IgG1 LA/LA/PG (antibody, V domains shown)
VH: QEQLVESGGRLVTPGTPLTLTCKASGFSLGKYDMSWVRQAPGKGLEWIGTIYAGSGSTWYASWAKGRFTISKTSTTVDLKMTSLTTEDTATYFCARDFLGVNSIWGPGTLVTISS
VL: SFVLTQPASVQVNLGQTVSLTCTADTLSRSYASWYQQKPDQAPVLLIHRDTSRPSGVPDRFSGSNSGNTATLTISGAQAGDEADYYCATSDGSGSNFHFVFGGGTQLTVTG
notes: Fc-silenced (L234A/L235A/P329G) IgG1, lambda; Alexa Fluor 647-labeled in single-step flow cytometry; Cluster C-97
[1]
  binding result: no binding (tested: 150 ng IgG1 per well)
[2]
  binding result: no binding (tested: 150 ng IgG1 per well)
[3]
  binding result: no binding (tested: 150 ng IgG1 per well)
[4]
  binding result: no binding (tested: 150 ng IgG1 per well)
